From patent US20250236679A1 (Chugai, published 2025)

Assays:
human DLL3-Fc = biological target: T1, human DLL3-Fc (human); experiment: ELISA, immobilized human DLL3-Fc
T1 construct: also called soluble DLL3 protein
T1 chain: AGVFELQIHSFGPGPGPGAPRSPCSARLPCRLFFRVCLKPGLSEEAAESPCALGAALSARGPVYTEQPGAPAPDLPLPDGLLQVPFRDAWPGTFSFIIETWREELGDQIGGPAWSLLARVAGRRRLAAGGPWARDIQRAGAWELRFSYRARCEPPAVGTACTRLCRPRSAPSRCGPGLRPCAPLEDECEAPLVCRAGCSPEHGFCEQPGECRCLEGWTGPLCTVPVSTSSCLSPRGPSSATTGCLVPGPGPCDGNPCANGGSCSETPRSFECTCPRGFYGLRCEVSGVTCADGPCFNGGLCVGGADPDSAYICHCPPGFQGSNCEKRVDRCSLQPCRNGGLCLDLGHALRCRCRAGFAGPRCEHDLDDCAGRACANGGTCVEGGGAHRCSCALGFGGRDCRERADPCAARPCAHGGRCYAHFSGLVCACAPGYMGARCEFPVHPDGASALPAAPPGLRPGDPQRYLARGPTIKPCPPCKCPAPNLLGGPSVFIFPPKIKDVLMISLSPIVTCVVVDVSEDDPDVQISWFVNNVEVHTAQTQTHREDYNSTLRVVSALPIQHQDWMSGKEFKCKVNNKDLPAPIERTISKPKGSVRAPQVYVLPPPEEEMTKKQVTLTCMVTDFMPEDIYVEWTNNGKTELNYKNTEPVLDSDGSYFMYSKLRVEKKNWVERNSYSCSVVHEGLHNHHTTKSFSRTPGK
Protocol: The competition of a chimeric antibody and a mouse antibody for binding to the antigen molecule was analyzed by ELISA (FIG. 8 (b)). Human DLL3-Fc was added at 10 ng/well to a Nunc immunoplate and immobilized thereon. A mixture (final concentration: 50 ng/ml) of the chimeric antibody and the appropriately diluted mouse antibody was added to the DLL3-Fc protein-immobilized plate. The plate was incubated at room temperature for 1 hour and then washed. Alkaline phosphatase-labeled anti-human antibodies were added thereto and incubated. After the incubation, Sigma 104 was added thereto, and the absorbance was measured. The binding of the chimeric antibody to the antigen molecule competed with that of the original mouse monoclonal antibody thereto.

[1] = biological target: T2, human DLL3 expressed on cells (human DLL3/BaF3) (human, UniProt Q9NYJ7 27-618); experiment: flow cytometry on human DLL3/BaF3 cells, chimeric antibody 1 µg/ml
T2 construct: Full-length human DLL3 on the membrane of transformed Ba/F3 cells; The ADCC assays also used NCI-H1184 small-cell lung cancer cells that express DLL3; also called Delta-like 3; NM_016941
T2 sequence: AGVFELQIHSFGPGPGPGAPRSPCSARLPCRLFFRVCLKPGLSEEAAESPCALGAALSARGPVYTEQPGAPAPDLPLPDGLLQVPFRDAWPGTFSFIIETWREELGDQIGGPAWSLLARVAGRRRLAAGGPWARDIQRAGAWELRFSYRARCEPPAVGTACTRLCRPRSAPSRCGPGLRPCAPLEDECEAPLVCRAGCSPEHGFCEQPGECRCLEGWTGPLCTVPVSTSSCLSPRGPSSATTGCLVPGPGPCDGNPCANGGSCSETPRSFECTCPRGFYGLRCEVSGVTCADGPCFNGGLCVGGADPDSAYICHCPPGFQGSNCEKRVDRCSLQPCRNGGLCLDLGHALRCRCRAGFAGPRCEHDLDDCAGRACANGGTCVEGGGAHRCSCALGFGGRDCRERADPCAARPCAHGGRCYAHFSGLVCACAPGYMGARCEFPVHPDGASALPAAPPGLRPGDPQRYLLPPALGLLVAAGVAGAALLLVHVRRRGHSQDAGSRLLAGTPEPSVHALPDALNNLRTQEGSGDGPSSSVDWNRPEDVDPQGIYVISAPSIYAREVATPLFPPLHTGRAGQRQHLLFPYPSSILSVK
Protocol: The chimeric antibody in the culture supernatant of COS-7 was confirmed to bind to the human DLL3 protein by flow cytometry and ELISA. The chimeric antibody concentration in the culture supernatant of COS-7 was calculated by sandwich ELISA. In this concentration calculation, a human chimeric antibody known for its concentration was used as a standard. The chimeric antibody (final concentration: 1 μg/ml) was added to human DLL3/BaF3 cells suspended in a FACS buffer (PBS containing 1% fetal bovine serum). After incubation at 4° C. for 30 minutes and washing, the cells were reacted with FITC-labeled anti-human antibodies (Beckman Coulter, Inc.), and the binding of the chimeric antibody was analyzed using a flow cytometer FACSCalibur. […] None of the chimeric antibodies bound to Ba/F3 cells, which were a parental line of the forced expressing cells. Human DLL3-Fc was immobilized on a Nunc immunoplate, and the binding of each chimeric antibody to the immobilized protein was analyzed. For detecting antigen-bound chimeric antibodies, the chimeric antibody was added thereto, and alkaline phosphatase-labeled anti-human antibodies (Biosource, AHI0305) and an alkaline phosphatase substrate Sigma 104 were then added in this order. The absorbance was determined. The DL301, DL309, and DL312 chimeric antibodies bound to human DLL3-Fc in a dose-dependent manner (FIG. 8(a)).
COS-7 cells were transfected with the DL306 chimeric antibody expression vector and allowed to transiently express the chimeric antibody. The chimeric antibody in the culture supernatant of COS-7 was confirmed to bind to the human DLL3 protein by flow cytometry. The chimeric antibody concentration in the culture supernatant of COS-7 was calculated by sandwich ELISA. In this concentration calculation, a human chimeric antibody known for its concentration was used as a standard. […] After incubation at 4° C. for 30 minutes and washing, the cells were reacted with FITC-labeled anti-human antibodies (Beckman Coulter, Inc.), and the binding of the chimeric antibody was analyzed using a flow cytometer FACSCalibur.

B1: DL301 human chimeric antibody (antibody, human IgG1, kappa)
heavy: not shown
light: DIKMTQSPSSMYASLGERVTITCKASQDINSYLIWFQQKPGKSPKTLIYRTNRLVDGVPSRFSGSGSGQDYSLTISSLEYGDMGIYYCLQYDEFPFTFGSGTKLEIKRTVAAPSVFIFPPSDEQLKSGTASVVCLLNNFYPREAKVQWKVDNALQSGNSQESVTEQDSKDSTYSLSSTLTLSKADYEKHKVYACEVTHQGLSSPVTKSFNRGEC
notes: Mouse variable regions with human IgG1 constant regions; also called chimeric antibody DL301; DL301 chimeric antibody
Human DLL3-Fc
  binding result: binds
[1]
  binding result: binds

B2: DL309 human chimeric antibody (antibody, human IgG1, kappa)
heavy: not shown
light: DIVMTQSQKFMSTSVGDRVSVTCKASQNVGTNVAWYQQKPGQSPKALIYSASYRYSGVPDRFTGSGSGTDFTLTISNVQSEDLAEYFCQQYNNYPLTFGAGTKLELKRTVAAPSVFIFPPSDEQLKSGTASVVCLLNNFYPREAKVQWKVDNALQSGNSQESVTEQDSKDSTYSLSSTLTLSKADYEKHKVYACEVTHQGLSSPVTKSFNRGEC
notes: Mouse variable regions with human IgG1 constant regions; also called chimeric antibody DL309; DL309 chimeric antibody
Human DLL3-Fc
  binding result: binds
[1]
  binding result: binds

B3: DL312 human chimeric antibody (antibody, human IgG1, kappa)
heavy: not shown
light: DIQMTQSPSSLSASLGERVSLTCRASQEISDYLSWLQQKPDGTIKRLIFAASTLDSGVPKRFSGSRSGSDFSLSISSLESEDFADYYCLQYASYPYTFGSGTKLEIKRTVAAPSVFIFPPSDEQLKSGTASVVCLLNNFYPREAKVQWKVDNALQSGNSQESVTEQDSKDSTYSLSSTLTLSKADYEKHKVYACEVTHQGLSSPVTKSFNRGEC
notes: Mouse variable regions with human IgG1 constant regions; also called chimeric antibody DL312; DL312 chimeric antibody
Human DLL3-Fc
  binding result: binds
[1]
  binding result: binds
